For data set [1], the target named is T1, hT40 (Homo sapiens, UniProt P10636).
T1 construct: Full length tau (hT40)
The data set is described as follows: Sandwich ELISA limits of detection (LoD) of antibody pairs. Type of data set: binding. The settings on record: S1D12 mAb capture; hT40. The text has this: The diverse panel of high affinity anti-tau antibodies (scAb and mAb formats) were paired in various combinations and tested in a Sandwich (or Capture) ELISA format to calculate their limits of detection (LoD) and their ability to differentiate between different tau species. Biologically, tau exists in 6 different isoforms and is subjected to numerous post translational modifications, some of them playing a significant role in the progression of neurodegeneration.
For Sandwich ELISA using colourimetric detection, 96 well Maxisorp plates were coated with the capture antibody S1D12 mAb at 1 μg/ml for 1 h at RT followed by blocking with 2% MPBS as normal. Full length tau (hT40), at 1 μg/ml starting concentration was added to designated wells and double diluted across rest of the plates and left to incubate at R/T for 1 h. A series of detection scAbs with varying epitope recognition properties were added at 10 μg/ml to designated wells (FIG. 22). For colourimetric detection HRP conjugated anti-HuCk secondary antibody was used and the resulting immunoreaction was developed and absorbance at 450 nm measured as described previously. Cut-off point for a positive binding event was an absorbance value of 0.3 following background subtraction. In order to enhance the assay sensitivity, a chemiluminescent detection method was adopted where 50 μL SuperSignal ELISA Femto Substrate (Thermo Scientific) was added to each well following incubation with anti-HuCK HRP antibody and subsequent washing. The luminescence was read using Clariostar Plus microplate reader. A further modification to this protocol was done where various detection scAbs were directly conjugated with HRP and detected using chemiluminescent protocol as before. The lowest levels of detection achieved using different detection scAbs and a comparison of colourimetric and chemiluminescent methods of detection are shown in Table 28
Similarly, a sandwich ELISA format was set up using S1G2 mAb at 1 μg/ml as the capture antibody and HRP conjugated S1D12 mAb for detection. The assay was conducted using chemiluminescent protocol described above.
A general note: In an ELISA, binding on a coated surface is turned into a signal by an enzyme label.

Data set [2] concerns the target dGAE aggregates (Homo sapiens, UniProt P10636). The data set is described as follows: Sandwich ELISA on SDS/Triton X-100 treated dGAE aggregates. Type of data set: binding. Further details: key to LoD, 423 mAb capture, Untreated dGAE agg. / LoD, Direct immobilisation of dGAE aggregates, Untreated dGAE agg.: NB denotes no binding. The settings on record: untreated aggregates. How it is done: We have noticed Sodium dodecyl sulphate (SDS) can break apart dGA/dGAE aggregates and separate them into smaller fragments by performing an SDS-PAGE. This has been replicated and tested using an ELISA as described below.
For aggregation, 1000 μL 100 μM dGAE+10 μL 10 mM DTT was added to a ‘LoBind’ microfuge tubes and agitated at 700 RPM/37° C. for 24 hours. Resulting sample centrifuged at 17,000×g/4° C. for 60 min and supernatant discarded to remove left over monomer. Pellet resuspended in half the original volume for future experiments and hereafter referred to as ‘aggregates’. 1 μl of aggregates was added to 1 ml of PBS and SDS was added to a final concentration of 1% (w/v). This was left to incubate on lab bench for 1 h with gentle agitation every 15 minutes. In order to neutralize the SDS effect on ELISA, Triton X-100 added to a final concentration of 3% (v/v) and mixed gently by pipetting to prevent any bubble formation. 200 μl added of this mix was to the first well of an ELISA plate coated with 1 μg/ml S1D12 mAb and blocked with 2% MPBS. Similarly aggregates treated with only SDS or Triton X-100, untreated aggregates, dGAE monomers treated with only SDS or SDS+Titon X-100 were also added to designated wells as controls. All samples were then double diluted across the plate in final volumes of 100 μl. The final column was left with no protein to act as a blank. This was allowed to stand at room temperature for 1 hour followed by the addition of detection scAb-S1G2 at 10 μg/ml. Anti-HuCk HRP labelled secondary antibody was added as described previously and ELISA data generated was represented using the graph below.

Chain of dGAE aggregates (P10636 614-708): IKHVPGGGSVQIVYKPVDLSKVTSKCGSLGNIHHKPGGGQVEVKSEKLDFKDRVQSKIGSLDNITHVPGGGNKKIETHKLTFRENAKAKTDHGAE
T1 sequence (P10636 1-441 isoform P10636-8): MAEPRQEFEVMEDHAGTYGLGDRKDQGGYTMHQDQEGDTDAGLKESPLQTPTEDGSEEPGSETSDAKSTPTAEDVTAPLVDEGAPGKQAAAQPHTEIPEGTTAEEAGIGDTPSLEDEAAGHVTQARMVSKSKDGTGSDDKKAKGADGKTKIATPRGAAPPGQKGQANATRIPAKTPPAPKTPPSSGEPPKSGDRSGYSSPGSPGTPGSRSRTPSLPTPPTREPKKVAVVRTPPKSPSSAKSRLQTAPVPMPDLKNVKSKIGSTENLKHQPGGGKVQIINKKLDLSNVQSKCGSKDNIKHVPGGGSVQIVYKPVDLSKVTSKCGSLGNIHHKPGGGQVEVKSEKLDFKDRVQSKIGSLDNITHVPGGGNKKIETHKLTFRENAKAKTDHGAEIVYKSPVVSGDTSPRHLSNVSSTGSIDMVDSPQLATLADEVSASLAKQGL

B1: S1G2: sheep-derived anti-tau core clone; scFv SEQ ID NO: 81, VH 455, VL 456 (protein)
scFv: QVQLQESGPSLVKPSQTLSLTCTVSGFSLTSNSVGWVRQAPGKAPEWVAGIDTDGEEGYNPALNSRLSITRDTSKSQVSLSLSSVTSEDTAVYYCGRSYRADGLAYGYVQAIDYWGPGLLVTVSSEGKSSGASGESKVDDQAVVTQPSSVSGSLGQRVSITCSGSFIGISSVGWFQQLPGSGLRTIIVASDGRPSGVPDRFSMSKSGNTATLTISSLQAEDEADYFCGSSDRTPYTGVFGSGTRLTVLG
modifications: S1G2 amino acid sequence
Turning to B1, the “LoD (ng/ml) direct HRP conjugation of detection scAb & chemiluminescence” value in data set [1] was found to be 0.04 ng/mL. Further, in data set [2] (direct immobilisation), the “LoD, Direct immobilisation of dGAE aggregates, Untreated dGAE agg.” value is on record as “NB”. Also, in data set [2] (sandwich ELISA, 423 mAb capture), the “LoD, 423 mAb capture, Untreated dGAE agg.” value was “NB”. Besides, the “LoD, S1D12 mAb capture, Untreated dGAE agg.” value in data set [2] (sandwich ELISA, S1D12 mAb capture) was 250 ng/mL.

The values above are taken from patent publication US20250355001A1, “METHOD FOR DETECTING A TAU PROTEIN FRAGMENT IN A SAMPLE” (GTINVENT LIMITED, priority 2022, published 2025).
